The numbers were not newly measured in PMC4858162, which cites them from elsewhere.

This data set concerns the target DNA polymerase III beta sliding clamp (Escherichia coli) (UniProt P0A988).

Consider “DNA polymerase III beta sliding clamp (from UniProt P0A988)”, for which the equilibrium dissociation constant (Kd) was less than 0.06 nM.

As usually defined, the Kd is a measure of binding affinity in units of concentration.
